B1: LAb19307 (antibody, V domains shown)
VH: EVQLVESGGDLVKPGGSLKLSCAASGFAFGTYDMSWVRQTPEKRLEWVAYISSGGNSPYYPQTVKGRFTISRDNAKNTLYLQMSSLKSEDTAMYYCARQNIARRGAMDFWGQGASVTVSS
VL: DVVLTQSPLSQPVSLGDQASISCTSSQSLLHSNGNTYLHWYLQKPGQSPKLLIYKVSNRFSGVPDRFSGSGSGTDFTLKISRVEAEDLGVYFCSQSTHVPPTFGGGTKLEIK
notes: Mouse monoclonal antibody purified from hybridoma supernatant
B2: LAb19310 (antibody, V domains shown)
VH: EVQLQQSGPELVKPGPSLKISCKASGYSFTVSPMTWVKQSHGKNLEWIGLIHPYNGDTTYNQKFKGKATLTVDKSSSTAYMELLSLTSEDSAVYYCARWGNYYPYAMDYWGQGTSVTVSS
VL: DIVMTQSQKFMSTSVGDRVSITCKASQNVRSTVAWYQQKPGQSPKALIYLTSNRHTGVPDRFTGSGSGTDFTLTISNVQSEDLADYFCLQHWNYPYTFGGGTKLEIK
notes: as for B1
B3: LAb19309 (antibody, V domains shown)
VH: QVQLQQSGAELVRPGASVTLSCKASGYTFTDYEMHWVKQTPVHGLEWIGGIDPETGNTAYSQKFKGKATLTADKSSSTAYMEVRSLTSEDSAVYYCTRYYSFAYWGQGTLVTVSA
VL: DVLMTQTPLSLPVNLGDQASISCRSSQTIVHSNGNTYLEWYLQKPGQSPKLLIYKVSNRFSGVPDRFSGSGSGTDFTLRISRVEAEDLGVYYCFQVSHVPYTFGGGTKLEIK
notes: as for B1

These results are taken from patent US20230088461A1 (NANJING LEGEND BIOTECH, published 2023).

In the first assay the target is T1, human GPC3 on SK-HEP-1-huGPC3 cells (human, UniProt P51654 25-554).
T1 construct: whole, on cells
The assay is described as follows: flow cytometry on SK-HEP-1-huGPC3 cells, PE anti-mouse IgG Fc. Further: test concentration or dose not given here. On the technique in general: Flow cytometry measures light scatter and fluorescence of single cells or particles in a stream.
As to B1, the “Positive population, %” value was determined as 92.9%.
Regarding B2, the “Positive population, %” value is 91.3%.
Take B3: the “Positive population, %” value stood at 92.7%.

The target in a further assay is T2, mouse GPC3 on SK-HEP-1-muGPC3 cells (mouse, UniProt Q8CFZ4 25-553).
T2 construct: whole, on cells
T2 sequence (Q8CFZ4 25-553 limits assumed): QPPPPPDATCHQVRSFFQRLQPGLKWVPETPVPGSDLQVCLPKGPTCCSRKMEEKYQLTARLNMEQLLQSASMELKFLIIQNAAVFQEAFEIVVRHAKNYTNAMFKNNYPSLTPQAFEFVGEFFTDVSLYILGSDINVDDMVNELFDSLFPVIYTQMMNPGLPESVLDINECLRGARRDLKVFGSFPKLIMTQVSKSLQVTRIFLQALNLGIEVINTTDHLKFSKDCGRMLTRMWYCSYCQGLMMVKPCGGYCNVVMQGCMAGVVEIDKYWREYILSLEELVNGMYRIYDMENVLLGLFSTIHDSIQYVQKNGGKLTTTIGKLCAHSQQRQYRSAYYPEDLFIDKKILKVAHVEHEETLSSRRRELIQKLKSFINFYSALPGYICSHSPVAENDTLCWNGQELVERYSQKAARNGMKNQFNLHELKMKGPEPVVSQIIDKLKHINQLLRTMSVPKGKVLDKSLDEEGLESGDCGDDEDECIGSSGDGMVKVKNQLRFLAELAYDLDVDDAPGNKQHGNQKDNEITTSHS
The experiment in a line: flow cytometry on SK-HEP-1-muGPC3 cells, PE anti-mouse IgG Fc. Further: test concentration or dose not given here.
Regarding B1, the “Positive population, %” value amounted to 83.3%.
Consider B2, for which the “Positive population, %” value was determined as 83.9%.
The same measure, in the same setting: the figure for B3 is 1.02%.

The target of a further assay is T3, cynomolgus monkey GPC3 on SK-HEP-1-cmGPC3 cells (cynomolgus monkey, UniProt A0A2K5VK50 24-553).
T3 construct: whole, on cells
The assay is described as follows: flow cytometry on SK-HEP-1-cmGPC3 cells, PE anti-mouse IgG Fc. Further: test concentration or dose not given here.
On to B1, for which the “Positive population, %” value worked out at 11.6%.
Same read-out and setting: the figure for B2 is 22.3%; for B3 it is 91.9%.

Another assay addresses T4, recombinant human GPC3 (human, UniProt P51654 25-559, limits assumed).
T4 construct: also called hGPC3
The assay is described as follows: SPR (Biacore), antibody as ligand, recombinant human GPC3 as analyte, 1:1 Langmuir model. Background: SPR reads the build-up and loss of mass on a sensor chip optically.
Experimental: The binding kinetics of the antibodies to recombinant human GPC3 were measured by the surface plasmon resonance (SPR) (e.g., Biacore). Binding rate (Kₐ) and dissociation rates (Kd) were calculated using a simple one-to-one Langmuir binding model (Biacore Evaluation Software). The equilibrium dissociation constant (KD) is calculated as the ratio Kd/Kₐ.
Regarding B1, the dissociation constant Kd was 58.7 nM, the dissociation rate constant (koff) came to 0.00178 s⁻¹ and the on-rate constant (kon) came to 30200 M⁻¹ s⁻¹.
In the same order, the values of B2 are 12.6 nM, 0.000465 s⁻¹ and 36900 M⁻¹ s⁻¹.
As for B3, the dissociation constant (Kd) amounted to 8.38 nM, the koff came out at 0.000195 s⁻¹ and the kon worked out at 23300 M⁻¹ s⁻¹.

For orientation: Kd means the constant that tells how readily two partners part at equilibrium. The term koff denotes the rate constant with which the complex falls apart. As a reminder, the kon is the second-order rate constant of association.
